In publication PMC7352787:

Tests used:
[1] = target: membrane-bound HLA-G*01:04 on K562 cells (human); test: flow cytometry on cells; 1 x 10^6 K562 cells presenting HLA-G*01:0x incubated with 200 nM purified sNKG2A/CD94 or sNKG2C/CD94 for 2 h at 37 °C; detection by anti-V5-tag antibody and PE-coupled secondary antibody; three technical replicates
[2] = target: membrane-bound HLA-G*01:03 on K562 cells (human); test: as above

- percent binding (flow cytometry) [1]: 57.7%
- percent binding (flow cytometry) [2]: 17.4%
Substance: recombinant soluble heterodimeric NKG2A/CD94 (from UniProt P26715 1-233; Q13241 1-179) (complex)
